B1: lipase: triacylglycerol acylhydrolase (lipase) E.C. 3.1.1.3 from Humicola lanuginosa (protein, UniProt O59952 23-291, looked up)
Lipase: EVSQDLFNQFNLFAQYSAAAYCGKNNDAPAGTNITCTGNACPEVEKADATFLYSFEDSGVGDVTGFLALDNTNKLIVLSFRGSRSIENWIGNLNFDLKEINDICSGCRGHDGFTSSWRSVADTLRQKVEDAVREHPDYRVVFTGHSLGGALATVAGADLRGNGYDIDVFSYGAPRVGNRAFAEFLTVQTGGTLYRITHTNDIVPRLPPREFGYSHSSPEYWIKSGTLVPVTRNDIVKIEGIDATGGNNQPNIPDIPAHLWYFGLIGTCL

Tests used:
[1] = tested on: Human lung epithelial cells (BEAS-2B, ATCC # CRL-9609); experiment: Bioassay: extracellular cytokine expression of epithelial cells, assessed by ELISA; type: cell-based
Description: Human lung epithelial cells (BEAS-2B, ATCC # CRL-9609) were inoculated in a culture flask (NUNC), precoated with 2% (vol/vol) Ultroser G in water, at 1500 to 3000 cells per cm^2, and were grown at 37° C. in LHC-9 medium containing 2% (vol/vol) Ultroser G and 5% CO2.
The cells were subcultured before reaching confluence. The medium was removed, and fresh 0.5% polyvinylpyrrolidone (PVP) in trypin (0.25% (wt/vol))-EDTA (0.03% (wt/vol)) solution was added until cells detached (usually after 5-10 minutes at room temperature). LHC-9 medium was added, and cells were collected by centrifugation (300× g for 15 minutes), and resuspended in LHC-9 medium containing 2% (vol/vol) Ultroser G. Finally, cells were dispensed into precoated flasks (NUNC) at a density of 1500 to 3000 cells per cm^2.
When enough cells were available to perform the planned number of assays, cells were trypinated, and were transferred to a 24-well culture plate (NUNC) (1×10^5 cells per well). Incubation was for 24 hours at 37° C. in LHC-9 medium containing 2% (vol/vol) Ultroser G and 5% CO2. […]
The extracellular expression of selected cytokines was assessed by ELISA (R&D Systems), as a function of incubation time and protein concentration. […] A calibration curve was included each time, to include quantification of the detected cytokine levels, as well as to assess assay reproducibility.

Brown Norway rats = experiment: Intratracheal immunization of Brown Norway rats, IgE ELISA; type: in vivo, rat; settings: rats immunized intratracheally, IgE detected by ELISA, Example 5
Description: Twenty intratracheal immunizations were performed weekly with 100 microliters 0.9% (wt/vol) NaCl (control group), or 100 microliters of the protein dilution mentioned before. Each group contained 10 rats. Blood samples (2 ml) were collected from the eye one week after every second immunization. Serum was obtained by blood clothing, and centrifugation.
The IgE ELISA was performed by using the following: Buffers and Solutions:
Mouse anti-Rat IgE was diluted 200×in PBS (5 micrograms/ml). 100 microliters were added to each well. The plates were coated overnight at 4° C.
Unspecific adsorption was blocked by incubating each well for 1 hour at room temperature with 200 microliters blocking buffer. The plates were washed 3×with 300 microliters washing buffer.
Unknown rat sera and a known rat IgE solution were diluted in dilution buffer: Typically 10×, 20×and 40×for the unknown sera, and ½ dilutions for the standard IgE starting from 1 microgram/ml. 100 microliters were added to each well. […]
The reaction was stopped by adding 100 microliters H2SO4. The plates were read at 492 nm with 620 nm as reference.
Rats were immunized intratracheally with unmodified and modified protease, and the protease specific IgE levels were detected by ELISA. The IgE levels detected throughout the study were integrated, and compared relative to the levels observed in rats immunized with unmodified enzyme.

Molecule | effect on cytokine production ([1]; PMSF (10 mM) and its hydrolysis products, diluted about 1000× before being applied on the cells) | level of all cytokines (normalized cytokine levels, FIG. 5) ([1]; epithelial cell assay, Example 5) | IgE level in rats (Brown Norway rats)
O=S(=O)(F)Cc1ccccc1 [PMSF, reference compound] | no detectable effect |  | 
B1 |  | high level | significantly lower IgE level

Source: US20030032072A1, “Method for the assessment of allergenicity” (Novozymes A/S, priority 1999, published 2003)
